Data taken from the DeepSol protein solubility set.

Assay: soluble on expression in E. coli; label from the status in PepcDB or PDB records

Row | Sequence | soluble on expression in E. coli
1 | MAEAATPGTTATTSGAGAAAATAAAASPTPIPTVTAPSLGAGGGGGGSDGSGGGWTKQVTCRYFMHGVCKEGDNCRYSHDLSDSPYSVVCKYFQRGYCIYGDRCRYEHSKPLKQEEATATELTTKSSLAASSSLSSIVGPLVEMNTGEAESRNSNFATVGAGSEDWVNAIEFVPGQPYCGRTAPSCTEAPLQGSVTKEESEKEQTAVETKKQLCPYAAVGECRYGENCVYLHGDSCDMCGLQLLHPMDAAQRSQHIKSCIEAHEKDMELSFAVQRSKDMVCGICMEVVYEKANPSERRFGILSNCNHTYCLKCIRKWRSAKQFESKIIKSCPECRITSNFVIPSEYWVEEKEEKQKLILKYKEAMSNKACRYFDEGRGSCPFGGNCFYKHAYPDGRREEPQRQKVGTSSRYRAQRRNHFWELIEERENSNPFDNDEEEVVTFELGEMLLMLLAAGGDDELTDSEDEWDLFHDELEDFYDLDL | soluble
2 | MAEAIFSAIVGDVIGRVISLVVSNFNGDHSTEVKLQRICRMLIKIHSVVEEAKGRQITNHGTLEWLSELIDGAYQGRYLLDTIGCGEPDLDDKNRDEVDPKPFSLSKFNPAKRVRVAAFTVRNILSRHDIGVDEIDRVVESLQSMCGDLKEFMMLLQACQPIHRPLATNIFIEGQMFGRHVKKEMIINFLLHEDDLPRGKLGVLPILGDIGVGKTTLVQHACDDARVRSHFTTILLFNFSHTYKMEMCEPKPVLRPKHVIGDVGNSDDPLHELEQSFFNKRFLIVFEDVDIHKKNMLEELLKSLSCGKQGSKIIVTTSNKHVTTIGTVQPIKLKFLPCPEYWFFFKAHAFAGTDVQENPRLVAAGKSIAAKLNGSFFGAKIIGAILKENPDPKFWCTVLQRDIGGLSLLGDGLGYIADLVEILLPSRLSVKEVFVSKNSLSSETELARLQGLCLPCPSSAPLATHSSELSLAKATSYERVLLCKAVLPFYSLYYTAKCAVDSENCYSKFSVV | soluble
3 | MAEAKQWDVKQLDRIVEKMIDTVQHSKDEIFRIGEQSRQEHDHLLRELEEVKRLTVQAIEEADQLEMKARQARRRLSEVSQNFSTHSEQDIREAYEQAHELHMKLTMVREREKQLRLRRDELERRLASLAQIIERADYLVGQITVVLHYLNSDFRQVGELIEGAKQKQEFGLKIIEAQEEERRRLSREIHDGPAQLLAHVLLRSDLVEKVIKERGTEAAIAEIRDFRKMVRSALSEVRRIIYDLRPMALDDLGLVPTLKKYLQTTEEYNKGVHISFVHIGEEIRLPSRMEAAVFRLVQESVQNALKHAEARHIDVKMEVTCDHLLVSVKDDGKGFDPSVKKENAFGLIGMRERVELLGGTLDIRSKIGSGTTVFIRVPLDRSTDKTNKEERKR | not soluble
4 | MAEAVLRVARRQLSQRGGSGAPILLRQMFEPVSCTFTYLLGDRESREAVLIDPVLETAPRDAQLIKELGLRLLYAVNTHCHADHITGSGLLRSLLPGCQSVISRLSGAQADLHIEDGDSIRFGRFALETRASPGHTPGCVTFVLNDHSMAFTGDALLIRGCGRTDFQQGCAKTLYHSVHEKIFTLPGDCLIYPAHDYHGFTVSTVEEERTLNPRLTLSCEEFVKIMGNLNLPKPQQIDFAVPANMRCGVQTPTALEHHHHHH | soluble
5 | MAEEKFFLGRQPILDREQRLYGFELLFRSADSLHANVTDYLQASASVIFDALSSFGFREILGKHKGFINVNADVLMSEALELLPPEKVVIELLEHVPITETVISRCHELREKGFSLALDDHIYEPVYEPLYHLVDVIKVDLFRTGMENLASEVETLRKWNTKLLAEKVETVEQYERCADLGFTYFQGYYFARP | not soluble
6 | MAEFKEQVLDILEEVCENDIVKENLDVQLFEEGILDSFAVVSLLVEFQERLDIEVSISDFDRDEWATPNMVIKKLEEIR | not soluble
7 | MAEGLRERKKRQTRQYISDVATGLFLERGFEAVTVAEVADAANVSVNTVYNYFPAKEDLFLDRSKGVIDRLSRWVRGRRDGESAAGAVLRELRDEVESVSPRVGLMDGYATFMKVIQDSPALRSRMWAIGQEVLLNLEHTLREETGSADDDMTPTLMAGQINWLHGTVLAAIGGRMVAGGKPSEVSRDMLLLLDEMEELLSEKVLNYAVRGAL | not soluble
8 | MAEHPIQGLMETAMESIKEMVDVNTIVGDAVQAPDGTVIIPISKVTFGFAAGGGEFASCCSVDEKGEDSSDDSSKPEIKFPFAGGSGAGVSINPVAFMVVGQGQIKLLPVNINSSLEKILDLIPEIIEKTKDSVKKNLKVKKEIKPGNGESCAKSSKEDENE | not soluble
9 | MAEHRGGSGNFAENREKASEAGRKGGQHSGGNFKNDPQRASEAGKKGGQNSHGGRKSDNS | not soluble
10 | MAEIIFNLSADDEGIGKHNYLCSLISQQSARCISGYVFSSSGFGESTTDVVFAGNGLIYENGYLLARSERFCMEEQLIINEIDVECIRAERRVNTTFAANKANCPGKEAVRISTEFVNSKDLNLTRTFNPHPFVPQGNELNSRLEHHHHHH | not soluble
11 | MAELQMLLEEEIPGGRRALFDSYTNLERVADYCENNYIQSADKQRALEETKAYTTQSLASVAYLINTLANNVLQMLDIQASQLRRMESSINHISQTVDIHKEKVARREIGILTTNKNTSRTHKIIAPANLERPVRYIRKPIDYTILDDIGHGVKVSTQNMKMGGLPRTTPPTQKPPSPPMSGKGTLGRHSPYRTLEPVRPPVVPNDYVPSPTRNMAPSQQSPVRTASVNQRNRTYSSSGSSGGSHPSSRSSSRENSGSGSVGVPIAVPTPSPPSVFPGHPVQFYSMNRPASRHTPPTIGGSLPYRRPPSITSQTSLQNQMNGGPFYSQNPVSLAPPPPSILQVTPQLPLMGFVARVQENISDTPPPPPPVEEPVFDESPPPPPPPEDYEEEEAAVVEYSDPYAEEDPPWAPRSYLEKVVAIYDYTKDKEDELSFQEGAIIYVIKKNDDGWYEGVMNGVTGLFPGNYVESIMHYSE | soluble
12 | MAENKQASEGLAEDLIRSMVQTASIELHLKTLVEKRQSEMDNGLIDTNDFNRVNEQIDVLKNLKEELFEVTEQRRQDMRTLFDLFEGKGDKEQWCIVKHAAMAMYTAFEAWQASDNDRLLYQICIEKNAYFIKKITQFTGVPITECASCFSDMMKGAIDDEG | not soluble
13 | MAERGGDGGESERFNPGELRMAQQQALRFRGPAPPPNAVMRGPPPLMRPPPPFGMMRGPPPPPRPPFGRPPFDPNMPPMPPPGGIPPPMGPPHLQRPPFMPPPMSSMPPPPGMMFPPGMPPVTAPGTPALPPTEEIWVENKTPDGKVYYYNARTRESAWTKPDGVKVIQQSELTPMLAAQAQVQAQAQAQAQAQAQAQAQAQAQAQAQAQAQAQAQAQAQAQAQAQAQAQAQAQAQAQAQAQVQAQVQAQVQAQAVGASTPTTSSPAPAVSTSTSSSTPSSTTSTTTTATSVAQTVSTPTTQDQTPSSAVSVATPTVSVSTPAPTATPVQTVPQPHPQTLPPAVPHSVPQPTTAIPAFPPVMVPPFRVPLPGMPIPLPGVLPGMAPPIVPMIHPQVAIAASPATLAGATAVSEWTEYKTADGKTYYYNNRTLESTWEKPQELKEKEKLEEKIKEPIKEPSEEPLPMETEEEDPKEEPIKEIKEEPKEEEMTEEEKAAQKAKPVATAPIPGTPWCVVWTGDERVFFYNPTTRLSMWDRPDDLIGRADVDKIIQEPPHKKGMEELKKLRHPTPTMLSIQKWQFSMSAIKEEQELMEEINEDEPVKAKKRKRDDNKDIDSEKEAAMEAEIKAARERAIVPLEARMKQFKDMLLERGVSAFSTWEKELHKIVFDPRYLLLNPKERKQVFDQYVKTRAEEERREKKNKIMQAKEDFKKMMEEAKFNPRATFSEFAAKHAKDSRFKAIEKMKDREALFNEFVAAARKKEKEDSKTRGEKIKSDFFELLSNHHLDSQSRWSKVKDKVESDPRYKAVDSSSMREDLFKQYIEKIAKNLDSEKEKELERQARIEASLREREREVQKARSEQTKEIDREREQHKREEAIQNFKALLSDMVRSSDVSWSDTRRTLRKDHRWESGSLLEREEKEKLFNEHIEALTKKKREHFRQLLDETSAITLTSTWKEVKKIIKEDPRCIKFSSSDRKKQREFEEYIRDKYITAKADFRTLLKETKFITYRSKKLIQESDQHLKDVEKILQNDKRYLVLDCVPEERRKLIVAYVDDLDRRGPPPPPTASEPTRRSTK | soluble
14 | MAEVVNISKSASFSKQEKEFSDFQKSKESNEKILNKESNRFTLHPIMYPEVWNFYKKAEASFWTAEEIDLSSDLKDFEKLNVNEKHFIKHVLAFFAASDGIVLENLASKFLREVEIIEAKKFYSFQIAVENIHSETYSLLIDNYIKDEKERLNLFHAIENIPAIKNKALWAAKWINDTNSFAERIVANACVEGILFSGSFCAIFWFKKQNKLHGLTFSNELISRDEGLHTDFNCLIYSLLENKLPENVVQNIVKEAVEVERSFICESLPCDLIGMNSRLMSQYIEFVADRLLECLGCSKVFHSKNPFNWMDLISLQGKTNFFEKRVADYQKSGVMAQRKEQVFSLNTDF | soluble
15 | MAFAKDLKRRNVLQEAVYHRIKADFDLGAQAAVRTVKKVCDAYATFKANLRAGNYGLEGSKRRIKAESKPVRFRETSAQPFDDRMLTWNLDTKMVSVWTVAGRLKGIPFVCSPEAMRLLAQRKGESDLVMRDGMFFLLATIDIPEPEVSGPDGFLGVDLGIVNIATTSDGRIMSSRQVNRYRQRKRDLRGKLQKKRTKSAARVLKRQRRKEARYATQRNHIIARKLVHTAERTSRGIGLEDLTGIRQRVTAREDQRARLHSWAFAQLGAFVEYKAKRAGVAVVHVDPRNTSRQCSECWHTHRTNRVTRARFVCRSCGIVLHADHNGSRNIAHRADAAWQRGAANRPRTPAAALEHHHHHH | not soluble
16 | MAFEKIIQLKNCRYDYTLSPSVKKFTLKDNTFFETKVGNYELTRLLEKVPNSGEGFQLKIIINKELTGAKINITDKFGLRLVDIFKSEDHHIHQEKFYFLMDSLVERGVFTKSER | not soluble
17 | MAFKLPNLPYAYDALEPYIDQRTMEFHHDKHHNTYVTKLNATVEGTELEHQSLADMIANLDKVPEAMRMSVRNNGGGHFNHSLFWEILSPNSEEKGGVIDDIKAQWGTLDEFKNEFANKATTLFGSGWTWLVVNDGKLEIVTTPNQDNPLTEGKTPILLFDVWEHAYYLKYQNKRPDYMTAFWNIVNWKKVDELYQAAK | not soluble
18 | MAFRMSRDHADFVAHGGTEWDDGAFVNVKKIKIFHDWAGITLVQFDYIDGTGAIVSGLDHGTEPFQFDREHGRVPVEGARAEFWLRDDEYITIVTAFGGYCVRKIEFITNKRTFDFGGFN | soluble
19 | MAFSVAYDLIPNKLIKDIDEMNQWLHDKINRAVYLVGFATQQSDYEYKLYELFKALDELEERLKKQLFLFGNQLTESDLYLLATLERFDNIYFCLFKCSLKRIADYPALFRYHNQLRGMESLASTYQPVLTKEHYFMSTMHVLGLEHHHHHH | not soluble
20 | MAFTESDVYNNEAFFKQYMKRRYRENSPNELIEKPAFFQLIGDVKGKKILDLGCGDAIFGKELLEKDCHSYTGIEGSELMYEKAKKQLENKNGIVHFLNLKDYTYPPATFDLVTSRLALHYIEHLPIIFQNVYETLKTNGTFTFSVQHPVITSSFESLQTSGKRTSWLVDDYFKTGKRVEPWIDQKVIKYHRTTEEYFTLLQQAGFTITNLKEATPNQTYFQSAEEYERRLRIPLFLLFSCRKLEHHHHHH | soluble
